The target in data set [1] is T1, CELF1 RRM1 (Xenopus, UniProt O57406 1-101). Description: gel filtration. For orientation: Size exclusion chromatography separates by hydrodynamic size, large species first.
The target in data set [2] is T1, CELF1 RRM1. Description: ESI-MS.
The target in data set [3] is T2, CELF1 T187 (RRM1-RRM2) (Xenopus, UniProt O57406 1-187). Description: gel filtration.
The target of data set [4] is T2, CELF1 T187 (RRM1-RRM2). Briefly: gel filtration. The source holds these as a separate data set.
Data set [5] addresses T1, CELF1 RRM1. Briefly: gel filtration. The source holds these as a separate data set.
The target in data set [6] is T2, CELF1 T187 (RRM1-RRM2). Description: gel filtration. This is another data set of the same source.
A further data set addresses CELF1 RRM2 (Xenopus, UniProt O57406 108-187). Briefly: gel filtration.
Data set [7] deals with T2, CELF1 T187 (RRM1-RRM2). Briefly: EMSA.
The target in data set [8] is T2, CELF1 T187 (RRM1-RRM2). Description: gel filtration. This is another data set of the same source.
In data set [9] the target is T2, CELF1 T187 (RRM1-RRM2). Briefly: EMSA. The source holds these as a separate data set. On the technique in general: In EMSA bound probe runs differently from free probe, usually more slowly.
For data set [10], the target named is T1, CELF1 RRM1. Description: NMR titration.
For data set [11], the target named is T2, CELF1 T187 (RRM1-RRM2). Description: ITC. In general terms: ITC needs no label: the signal is the heat of the interaction.
For data set [12], the target named is T2, CELF1 T187 (RRM1-RRM2). Briefly: NMR titration.
Data set [13] addresses T2, CELF1 T187 (RRM1-RRM2). Briefly: ESI-MS.

T2 sequence (O57406 1-187): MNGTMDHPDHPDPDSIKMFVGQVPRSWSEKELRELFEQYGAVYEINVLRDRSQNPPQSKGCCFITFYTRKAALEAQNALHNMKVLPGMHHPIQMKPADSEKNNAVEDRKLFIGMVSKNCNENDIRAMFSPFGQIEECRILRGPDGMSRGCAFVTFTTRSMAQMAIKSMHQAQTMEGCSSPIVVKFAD
T1 sequence (O57406 1-101): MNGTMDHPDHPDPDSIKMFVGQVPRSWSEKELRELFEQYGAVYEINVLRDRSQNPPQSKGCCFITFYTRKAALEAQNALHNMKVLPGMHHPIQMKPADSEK
Sequence of CELF1 RRM2 (O57406 108-187): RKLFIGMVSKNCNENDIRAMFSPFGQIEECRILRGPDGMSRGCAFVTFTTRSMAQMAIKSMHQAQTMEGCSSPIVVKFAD

B1: EDEN7m (ssRNA)
RNA: UGUUUAU
With B1, in the data set with CELF1 RRM1 [1], the binding result is given as “binds”.

B2: EDEN9 (ssRNA)
RNA: UUGUUUGUU
Regarding B2, in the data set with CELF1 RRM1 [2], the binding result is reported as “binds”.

B3: CUG15 (ssRNA)
RNA: CUGCUGCUGCUGCUG
In the case of B3, the binding result with CELF1 T187 (RRM1-RRM2) [3] is “binds”.

B4: UG15 (GU15 in text) (ssRNA)
RNA: UGUGUGUGUGUGUGU
Consider B4, for which the binding result with CELF1 T187 (RRM1-RRM2) [4] is given as “binds”.

B5: ARE7 (ssRNA)
RNA: UAUUUAU
On to B5, for which the binding result with CELF1 RRM1 [5], with CELF1 T187 (RRM1-RRM2) [6] and in the data set with CELF1 RRM2 was “no binding” each time.

B6: ARE15 (ssRNA)
RNA: UAUUUAUUUAUUUAU
In the case of B6, the binding result with CELF1 T187 (RRM1-RRM2) [7] was “no binding”.

B7: EDEN15 (ssRNA)
RNA: UGUUUGUUUGUUUGU
As for B7, the binding result with CELF1 T187 (RRM1-RRM2) [8] is listed as “binds”.

B8: GUCU15 (ssRNA)
RNA: UGUCUGUCUGUCUGU
For the molecule B8, in the data set with CELF1 T187 (RRM1-RRM2) [9], the binding result is “binds”.

B9: CUG2 (ssRNA)
RNA: CUGCUG
With B9, the binding result with CELF1 RRM1 [10] is “binds”.

B10: UGU (ssRNA)
RNA: UGU
What is called Kd is a measure of binding affinity in units of concentration. The low end stands for a tighter complex, the high end for a looser complex. B10 displayed an equilibrium dissociation constant (Kd) with CELF1 T187 (RRM1-RRM2) [11] of 64 ± 2 µM.

B11: EDEN3U (x=3) (ssRNA)
RNA: UGUUUUUGU
Take B11: in the data set with CELF1 T187 (RRM1-RRM2) [12], the binding result is on record as “binds”.

B12: EDEN11 (GRE) (ssRNA)
RNA: UGUUUGUUUGU
For the molecule B12, in the data set with CELF1 T187 (RRM1-RRM2) [13], the binding result is listed as “binds”.

For the origin of these results see article PMC3201864.
